Data on 2 molecules can be found in US20230312739A1 (BIOTHEUS, published 2023).

A word on the EC50 (read off the curve): it is the concentration that produces a half-maximal response. In general, EC50 refers to the concentration at which the effect is half-maximal. The low end stands for an effect from little substance, the high end for a need for much substance. The Kd is the free concentration of one partner at which half of the binding sites on the other are occupied at equilibrium, for simple one-to-one binding. What is called koff is the rate constant with which the complex falls apart. The term kon denotes the second-order rate constant of association.

Experiment [1] deals with CD73 on cynomolgus macaques CD3+CD8+ T cells (cynomolgus macaques). Nature of the experiment: flow cytometry on cynomolgus macaque PBMC, CD3+CD8+ T cells, donor 1300M. A general note: A flow cytometer gives signals particle by particle.
Experiment [2] shares this target. Nature of the experiment: flow cytometry on cynomolgus macaque PBMC, CD3+CD8+ T cells, donor 1132F.
For experiment [3], the target named is T1, recombinant human CD73 protein (Baiying Bio) (human, UniProt P21589 27-549).
T1 construct: Bought protein; also called soluble recombinant CD73; soluble human CD73 protein
T1 sequence: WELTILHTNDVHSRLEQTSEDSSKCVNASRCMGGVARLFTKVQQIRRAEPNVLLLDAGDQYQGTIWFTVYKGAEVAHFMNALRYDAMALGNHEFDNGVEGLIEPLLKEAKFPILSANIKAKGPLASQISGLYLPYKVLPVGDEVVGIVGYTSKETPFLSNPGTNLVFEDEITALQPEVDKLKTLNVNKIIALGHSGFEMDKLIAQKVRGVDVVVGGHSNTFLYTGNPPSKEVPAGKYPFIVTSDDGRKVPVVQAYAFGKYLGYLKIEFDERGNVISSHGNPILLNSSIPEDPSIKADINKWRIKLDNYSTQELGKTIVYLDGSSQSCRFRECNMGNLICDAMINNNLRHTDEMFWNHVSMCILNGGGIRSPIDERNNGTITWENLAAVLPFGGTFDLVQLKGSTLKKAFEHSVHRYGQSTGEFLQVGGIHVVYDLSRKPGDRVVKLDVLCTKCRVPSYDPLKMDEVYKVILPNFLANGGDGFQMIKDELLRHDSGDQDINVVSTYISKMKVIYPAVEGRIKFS
The experiment in a line: ELISA, 1 ug/ml recombinant human CD73 coated, HRP-coupled anti-IgG Fc secondary antibody, OD450. The method, then:
1 μg/ml recombinant human CD73 protein (Baiying Bio, recombinant human CD73 protein) was coated on an ELISA plate in PBS for overnight at 4° C. The plate was washed 3 times with washing buffer (PBS, 0.05% Tween-20), and non-specific sites were blocked by adding 200 μl/well PBS+2% BSA. 100 μL of the anti-CD73 antibody in a dose range of gradient dilution was added to the ELISA plate coated with the antigen, and incubated at 37° C. for 1 h. The plate was washed 3 times in washing buffer, and HRP-coupled goat anti-human or goat anti-mouse IgG Fc fragment secondary antibody was added for 1 h at room temperature to detect the captured anti-CD73 antibody. […] The enzymatic reaction was stopped by adding 1M sulfuric acid solution, and the light absorption was measured at 450 nm. The graph was plotted with the absorbance value on the ordinate and the log value of antibody concentration on the abscissa, and the EC50 was calculated using GraphPad Prism software.
A general note: ELISA stands for enzyme-linked immunosorbent assay.

Experiment [4] addresses T2, human CD73 on the cell surface (tumor cells endogenously expressing human CD73; CHOS-human CD73) (human, UniProt P21589 27-549).
T2 construct: The endogenous CD73 of the human tumor lines (MDA-MB-231, Calu6, SK-ME-S, H2030, SKLU1, BT549, A375, HCC44) is treated as the same protein
T2 sequence: T1 sequence
The experiment in a line: flow cytometry, MFI, A375 cells expressing human CD73. The method, then: (§1) 500,000 CD73-expressing cells (see Example 2) were placed in 100 μL of FACS buffer (PBS+2% FBS)/well for later use in a round-bottom low adsorption 96-well plate. The antibody sample was subjected to serial 3-fold dilutions at 12 points by diluting ½ of the total volume (100 μL) in 200 μL of FACS buffer. 100 μL of the diluted antibody was added to each well of the cell plate, 100 μL of FACS buffer was added to the corresponding negative control well, and incubation was performed at 4° C. for 1 hour. […] After staining, the supernatant was removed by centrifugation, washing was performed twice with FACS buffer, and 100 μL of FACS buffer was added to each well to resuspend the cells, and then reading was performed on flow cytometry. The cells in the plate were measured using a flow cytometer (BD, model ACCURI C6 PLUS). During the measurement, the cells were first gated according to FCS and SSC, and then analyzed by the green fluorescence channel (FITC) corresponding to the secondary antibody and SSC. GraphPad was used for data analysis, wherein the abscissa indicated the logarithm of antibody concentration, the ordinate indicated mean fluorescence intensity, and the EC50 value of the anti-CD73 antibody was obtained by curve fitting.

The target in experiment [5] is T2, human CD73 on the cell surface (tumor …). Nature of the experiment: cell-based or functional assay.
Experiment [6] has the same target. Nature of the experiment: flow cytometry, MFI, MDA-MB-231 cells expressing human CD73. The method, then: as §1
Experiment [7] has as its target T1, recombinant human CD73 protein (Baiying …). The experiment in a line: SPR, Biacore T200 at 25 C, antibody captured on Protein A chip, CD73 protein as analyte, 1:1 model. How it is done: The antibody was diluted with running buffer 1*HBS-EP+ to 1 μg/ml, and was captured onto the chip surface (Protein A chip, GE, Cat #29127556) at a flow rate of 10 μl/min for 30 s. Then, a series of concentrations of CD73 protein (Baiying Bio, recombinant human CD73 protein) were injected into antibody channel at a flow rate of 30 μl/min, for association of 180 s, followed by dissociation for 900 s. 10 mM pH 1.5 Gly-HCl was used for regeneration. The sensorgram data was fitted using a 1:1 dynamic binding model.

Take Isotype control (IgG1-TM) (antibody): the MFI FC (fold change of mean fluorescence intensity) came to 1 fold in experiment [1] and 1.2 fold in experiment [2].

B1: humanized antibody 7002-01 (antibody, human IgG1, kappa, V domains shown)
VH: QVQLQESGPGLVKPSQTLSLTCTVSGYSITSGYDWHWIRQHPGKGLEWMGYISYSGYTDYNPSLKSRITISHDTSKNQFSLKLSSVTAADTAVYYCTRGDHSYAMDYWGQGTLVTVSS
VL: AIQMTQSHSSLSASVGDRVTITCKASQAVGTAVAWYQQKPGKSPKLLIYWASSRHTGVPSRFSGSRSGTDFTLTISSLQPEDFATYFCQQYSSYPLTFGGGTKVEIKR
On to B1, for which, in experiment [3], the concentration giving a half-maximal response (EC50 (read off the curve)) was roughly 0.008 µg/mL. Further, in experiment [4], the response was half-maximal at 0.6 µg/mL (EC50). Further, in experiment [5], the “IC50 of antibody inhibiting enzymatic activity of CD73 on surface of A375 cells (AMP/ATP CellTiter-Glo)” value was found to be 0.26 µg/mL and the “IC50 of antibody inhibiting enzymatic activity of CD73 on surface of MDA-MB-231 cells (AMP/ATP CellTiter-Glo)” value was found to be 1 µg/mL. Besides, the concentration giving a half-maximal response (EC50) in experiment [6] turned out to be 0.99 µg/mL. Besides, in experiment [7], the Kd came out at 0.21 nM, the koff is 6.24e-05 s⁻¹ and the on-rate (kon) was determined as 297000 M⁻¹ s⁻¹.
